Assay results published in US9845340B2, “Peptides that specifically bind HGF receptor (cMet) and uses thereof” (Dyax Corp., priority 2003, dated 2017).

Experiments:
cMet-Fc fusion protein = cMet-Fc fusion protein (Homo sapiens, UniProt P08581); assay: Protein phage ELISA: peptide-displaying phage binding to soluble cMet-Fc versus TRAIL-Fc; conditions: phage isolate; cMet-Fc vs. TRAIL-Fc
Procedure: Protein phage ELISAs using peptide-displaying phage isolates from the various selection campaigns were performed to determine specificity of the peptides for cMet versus an unrelated Fc-fusion protein (TRAIL-Fc). Briefly, 384-well plates were coated overnight at 4 C with 0.5 μg/mL of cMet-Fc fusion protein or TRAIL-Fc fusion protein (background). The plates were blocked for 2 hours 37C with 3% (w/v) BSA in PBS containing 0.05% (v/v) Tween-20 (PBST). The plates were washed with PBST and 100 μL of peptide-displaying phage were added to each well. The plates were incubated for 2 hours at room temperature and washed with PBST. cMet-binding peptide-displaying phage were detected using an HRP-conjugated anti-M13 antibody.

[1] = target: T1, 3T3 cells that over-express human cMet (Homo sapiens, UniProt P08581); assay: Whole cell ELISA of peptide-displaying phage; format: cell-based; conditions: phage isolate; 3T3 cells expressing human cMet vs. non-expressing 3T3 cells
T1 construct: expressed in transfected cells; host or cells: 3T3 cells
T1 sequence (P08581 25-1390): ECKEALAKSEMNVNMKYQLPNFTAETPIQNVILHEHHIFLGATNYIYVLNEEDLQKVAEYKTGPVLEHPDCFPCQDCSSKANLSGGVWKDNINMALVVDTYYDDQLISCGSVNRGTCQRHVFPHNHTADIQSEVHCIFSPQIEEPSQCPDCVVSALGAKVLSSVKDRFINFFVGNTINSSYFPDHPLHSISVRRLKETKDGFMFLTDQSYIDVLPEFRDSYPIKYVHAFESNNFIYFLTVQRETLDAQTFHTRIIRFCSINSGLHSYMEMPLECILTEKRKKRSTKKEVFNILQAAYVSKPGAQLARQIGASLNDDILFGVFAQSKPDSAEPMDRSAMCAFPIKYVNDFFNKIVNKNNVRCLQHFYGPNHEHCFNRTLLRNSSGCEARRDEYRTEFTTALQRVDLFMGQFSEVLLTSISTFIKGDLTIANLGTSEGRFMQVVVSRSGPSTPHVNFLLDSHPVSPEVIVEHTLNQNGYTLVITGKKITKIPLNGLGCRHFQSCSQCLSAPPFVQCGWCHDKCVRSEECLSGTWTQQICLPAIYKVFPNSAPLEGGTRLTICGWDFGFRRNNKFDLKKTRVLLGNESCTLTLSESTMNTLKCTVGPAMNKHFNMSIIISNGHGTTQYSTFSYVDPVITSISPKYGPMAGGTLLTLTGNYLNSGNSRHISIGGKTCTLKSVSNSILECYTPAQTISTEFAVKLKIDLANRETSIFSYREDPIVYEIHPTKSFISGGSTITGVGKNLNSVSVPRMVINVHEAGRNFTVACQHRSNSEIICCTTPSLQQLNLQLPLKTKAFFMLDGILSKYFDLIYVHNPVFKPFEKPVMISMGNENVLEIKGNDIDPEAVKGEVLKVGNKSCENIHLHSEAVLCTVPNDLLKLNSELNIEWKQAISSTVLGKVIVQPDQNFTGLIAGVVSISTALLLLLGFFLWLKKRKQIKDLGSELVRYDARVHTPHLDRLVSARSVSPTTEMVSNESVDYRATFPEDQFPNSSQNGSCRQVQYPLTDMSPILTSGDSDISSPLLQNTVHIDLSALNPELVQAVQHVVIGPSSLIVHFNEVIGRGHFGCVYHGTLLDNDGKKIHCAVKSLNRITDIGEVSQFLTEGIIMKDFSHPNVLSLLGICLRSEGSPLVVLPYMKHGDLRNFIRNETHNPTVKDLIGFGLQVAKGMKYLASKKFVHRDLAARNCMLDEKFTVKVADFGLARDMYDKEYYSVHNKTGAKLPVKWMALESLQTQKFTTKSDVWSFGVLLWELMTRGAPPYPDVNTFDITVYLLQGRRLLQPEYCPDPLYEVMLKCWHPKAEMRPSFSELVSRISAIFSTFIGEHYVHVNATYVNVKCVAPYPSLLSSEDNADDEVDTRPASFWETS
Procedure: Whole cell ELISAs were performed using 3T3 cells that over-express human cMet. […] Briefly, 96-well plates were seeded with 10^5 cells per well. The plates were centrifuged for 5 minutes at 1600 rpm to pellet the cells. The resulting cell layer was fixed with 0.1% (v/v) glutaraldehyde for 12 minutes at 37 C. […] Peptide-displaying phage also were blocked in the above solution for 1 hour at 37 C. 100 μL of blocked phage was then added to each well and the plates were incubated for 1 hour at room temperature. The plates were washed with PBST. cMet-binding peptide-displaying phage were detected using an HRP-conjugated anti-M13 antibody.

cMet-Fc fusion protein, sequence (P08581 25-307 limits assumed): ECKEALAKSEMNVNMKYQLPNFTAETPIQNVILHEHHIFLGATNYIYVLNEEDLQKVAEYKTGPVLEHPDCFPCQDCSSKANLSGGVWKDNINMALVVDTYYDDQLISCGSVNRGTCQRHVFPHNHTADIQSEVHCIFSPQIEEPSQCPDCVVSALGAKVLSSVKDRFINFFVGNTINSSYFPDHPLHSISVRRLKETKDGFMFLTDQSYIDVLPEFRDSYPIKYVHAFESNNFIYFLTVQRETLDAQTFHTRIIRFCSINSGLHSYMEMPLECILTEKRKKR
cMet-Fc fusion protein, sequence (P08581 with tags, fused parts or gaps limits assumed): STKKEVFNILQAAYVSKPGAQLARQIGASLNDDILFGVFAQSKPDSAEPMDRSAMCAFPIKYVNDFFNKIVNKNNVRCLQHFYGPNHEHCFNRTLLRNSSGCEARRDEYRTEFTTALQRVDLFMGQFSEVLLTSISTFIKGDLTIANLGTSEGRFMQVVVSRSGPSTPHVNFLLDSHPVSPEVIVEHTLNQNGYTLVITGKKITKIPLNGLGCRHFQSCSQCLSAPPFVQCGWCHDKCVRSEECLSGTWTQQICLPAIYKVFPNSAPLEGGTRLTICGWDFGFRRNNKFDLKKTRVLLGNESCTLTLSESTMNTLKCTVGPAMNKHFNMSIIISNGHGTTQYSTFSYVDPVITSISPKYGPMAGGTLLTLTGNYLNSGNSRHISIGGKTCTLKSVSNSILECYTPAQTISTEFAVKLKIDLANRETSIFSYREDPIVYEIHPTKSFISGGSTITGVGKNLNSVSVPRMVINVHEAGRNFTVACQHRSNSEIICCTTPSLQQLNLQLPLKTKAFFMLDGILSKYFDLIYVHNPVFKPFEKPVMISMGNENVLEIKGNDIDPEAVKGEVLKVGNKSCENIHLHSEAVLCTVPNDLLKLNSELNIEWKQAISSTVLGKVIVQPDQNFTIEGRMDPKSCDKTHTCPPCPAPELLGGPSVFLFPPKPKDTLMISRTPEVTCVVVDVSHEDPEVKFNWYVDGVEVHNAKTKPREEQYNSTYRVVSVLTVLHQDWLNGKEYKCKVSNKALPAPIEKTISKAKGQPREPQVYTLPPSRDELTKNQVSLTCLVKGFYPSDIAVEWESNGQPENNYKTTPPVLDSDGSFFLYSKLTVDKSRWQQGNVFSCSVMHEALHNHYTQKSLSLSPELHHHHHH

Compound | Protein ELISA (cMet-Fc fusion protein) | WC ELISA [1]
AGDWHCQGPPAFMCWMIGT (Synthetically generated cMet-binding peptide sequence) [SEQ ID NO: 065] | 4.7 fold over background | 1.30 fold over background
AGETFCVGNPSFECWSWGT (Synthetically generated cMet-binding peptide sequence) [SEQ ID NO: 094] | 10.3 fold over background | 1.27 fold over background
AGQYLCTQAALGCPEWGT (Synthetically generated cMet-binding peptide sequence) [SEQ ID NO: 029] | 4.3 fold over background | 1.23 fold over background
AGYWHCKGPPHFACEFHGT (Synthetically generated cMet-binding peptide sequence) [SEQ ID NO: 077] | 5.5 fold over background | 1.40 fold over background
AGPYSCHSESHDCKLMGT (Synthetically generated cMet-binding peptide sequence) [SEQ ID NO: 032] | 3.2 fold over background | 1.27 fold over background
AGETTCLGWPTFVCVDYGT (Synthetically generated cMet-binding peptide sequence) [SEQ ID NO: 063] | 5.3 fold over background | 1.27 fold over background
AGNLPCHWNMSVCDHQGT (Synthetically generated cMet-binding peptide sequence) [SEQ ID NO: 034] | 3.3 fold over background | 1.30 fold over background
AQELFQILEKQMWSDFMEWATP (Synthetically generated cMet-binding peptide sequence) [SEQ ID NO: 474] | 3.6 fold over background | 1.23 fold over background
AGTWHCAGPPWFTCYMDGT (Synthetically generated cMet-binding peptide sequence) [SEQ ID NO: 069] | 9.0 fold over background | 1.30 fold over background
AGLYLCDLSIMYCFFQGT (Synthetically generated cMet-binding peptide sequence) [SEQ ID NO: 015] | 4.3 fold over background | 1.33 fold over background
AQAEWVITSEEFYWKMADFGPP (Synthetically generated cMet-binding peptide sequence) [SEQ ID NO: 478] | 3.4 fold over background | 1.23 fold over background
AQRDYLFYWNDGSYQPWQVFVG (Synthetically generated cMet-binding peptide sequence) [SEQ ID NO: 493] | 5.5 fold over background | 1.30 fold over background
AGYFHCSGSPWFQCDYYGT (Synthetically generated cMet-binding peptide sequence) [SEQ ID NO: 081] | 9.1 fold over background | 1.40 fold over background
GDYRMCQISDMWGNYECSSDDP (Synthetically generated cMet-binding peptide sequence) [SEQ ID NO: 400] | 6.1 fold over background | 1.30 fold over background
CC[C@H](C)[C@H](NC(=O)[C@H](C)NC(=O)[C@@H](NC(=O)[C@H](Cc1ccccc1)NC(=O)[C@H](Cc1ccccc1)NC(=O)[C@H](CC(N)=O)NC(=O)[C@H](CCCNC(=N)N)NC(=O)[C@@H](NC(=O)[C@H](Cc1c[nH]cn1)NC(=O)[C@H](CC(=O)O)NC(=O)[C@@H](NC(=O)[C@H](Cc1c[nH]c2ccccc12)NC(=O)[C@H](CC(C)C)NC(=O)[C@H](CCC(=O)O)NC(=O)[C@H](Cc1ccccc1)NC(=O)CNC(=O)[C@H](CCC(N)=O)NC(=O)[C@H](C)NC(C)=O)C(C)C)[C@@H](C)O)[C@@H](C)CC)C(=O)N[C@@H](CO)C(=O)N1CCC[C@H]1C(=O)NCC(=O)NCC(=O)NCC(=O)N[C@@H](CCCCNC(=O)c1ccc2c(c1)C(=O)OC21c2ccc(O)cc2Oc2cc(O)ccc21)C(N)=O [SEQ ID NO: 469] | 3.8 fold over background | 1.20 fold over background
CC(=O)N[C@@H](C)C(=O)NCC(=O)N[C@@H](Cc1c[nH]cn1)C(=O)N[C@@H](C)C(=O)N[C@@H](Cc1c[nH]c2ccccc12)C(=O)N[C@H]1CSSC[C@@H](C(=O)N[C@@H](Cc2c[nH]c3ccccc23)C(=O)N2CCC[C@H]2C(=O)N2CCC[C@H]2C(=O)NCC(=O)N[C@H](C(=O)NCC(=O)NCC(=O)NCC(=O)N[C@@H](CCCCNC(=O)c2ccc3c(c2)C(=O)OC32c3ccc(O)cc3Oc3cc(O)ccc32)C(N)=O)[C@@H](C)O)NC(=O)[C@H](CCC(=O)O)NC(=O)[C@H](Cc2ccccc2)NC(=O)[C@H](CCCNC(=N)N)NC(=O)[C@@H]2CCCN2C(=O)[C@@H]2CCCN2C(=O)CNC(=O)[C@H](CO)NC1=O [SEQ ID NO: 061] | 3.2 fold over background | 1.27 fold over background
CSCC[C@H](NC(=O)[C@H](CC(=O)O)NC(=O)[C@H](C)NC(=O)[C@H](CC(=O)O)NC(=O)[C@H](CCC(N)=O)NC(=O)[C@H](CC(C)C)NC(=O)[C@H](CCC(=O)O)NC(=O)[C@H](Cc1ccc(O)cc1)NC(=O)[C@H](Cc1ccc(O)cc1)NC(=O)[C@@H]1CCCN1C(=O)[C@H](CCC(N)=O)NC(=O)[C@H](C)NC(C)=O)C(=O)N[C@@H](CC(C)C)C(=O)N[C@@H](CC(C)C)C(=O)N[C@H](C(=O)N[C@H](C(=O)N[C@@H](C)C(=O)N[C@@H](CC(C)C)C(=O)N[C@@H](CC(C)C)C(=O)N[C@@H](CO)C(=O)N[C@H](C(=O)NCC(=O)NCC(=O)NCC(=O)NCC(=O)N[C@@H](CCCCNC(=O)c1ccc2c(c1)C(=O)OC21c2ccc(O)cc2Oc2cc(O)ccc21)C(N)=O)[C@@H](C)O)C(C)C)C(C)C [SEQ ID NO: 458] | 6.1 fold over background | 1.20 fold over background
AGTIRCNLAMMVCMFEGT (Synthetically generated cMet-binding peptide sequence) [SEQ ID NO: 028] | 3.6 fold over background | 1.43 fold over background
CC[C@H](C)[C@H](NC(=O)[C@H](Cc1c[nH]c2ccccc12)NC(=O)[C@H](CO)NC(=O)CNC(C)=O)C(=O)N[C@H](C(=O)N[C@H]1CSSC[C@@H](C(=O)NCC(=O)N[C@@H](CO)C(=O)N[C@@H](CO)C(=O)N[C@@H](C)C(=O)N2CCC[C@H]2C(=O)NCC(=O)NCC(=O)NCC(=O)N[C@@H](CCCCNC(=O)c2ccc3c(c2)C(=O)OC32c3ccc(O)cc3Oc3cc(O)ccc32)C(N)=O)NC(=O)[C@H](CC(N)=O)NC(=O)[C@H](CC(=O)O)NC(=O)[C@H](Cc2c[nH]c3ccccc23)NC(=O)[C@H](Cc2c[nH]c3ccccc23)NC1=O)[C@@H](C)CC [SEQ ID NO: 001] | 4.9 fold over background | 1.30 fold over background
AGVTNCNLSTMFCFLHGT (Synthetically generated cMet-binding peptide sequence) [SEQ ID NO: 026] | 3.8 fold over background | 1.30 fold over background
CC(=O)N[C@@H](C)C(=O)N[C@@H](CCC(N)=O)C(=O)N[C@@H](Cc1c[nH]cn1)C(=O)N[C@@H](Cc1c[nH]c2ccccc12)C(=O)N[C@@H](CC(=O)O)C(=O)N[C@@H](Cc1ccc(O)cc1)C(=O)N[C@@H](CC(=O)O)C(=O)N[C@@H](CO)C(=O)NCC(=O)N[C@@H](CO)C(=O)N[C@@H](CC(=O)O)C(=O)N[C@@H](Cc1ccccc1)C(=O)N[C@@H](Cc1c[nH]c2ccccc12)C(=O)N[C@@H](Cc1ccccc1)C(=O)N1CCC[C@H]1C(=O)N[C@H](C(=O)N[C@@H](Cc1ccccc1)C(=O)N[C@@H](Cc1ccccc1)C(=O)N[C@@H](CC(C)C)C(=O)N[C@@H](CCC(=O)O)C(=O)N[C@@H](Cc1c[nH]cn1)C(=O)N[C@@H](Cc1c[nH]cn1)C(=O)NCC(=O)NCC(=O)NCC(=O)N[C@@H](CCCCNC(=O)c1ccc2c(c1)C(=O)OC21c2ccc(O)cc2Oc2cc(O)ccc21)C(N)=O)C(C)C [SEQ ID NO: 475] | 3.5 fold over background | 1.30 fold over background
GSHHTCLDGFAGWRCTEVAP (Synthetically generated cMet-binding peptide sequence) [SEQ ID NO: 366] | 10.4 fold over background | 1.33 fold over background
AGGNWCSFYEELCEWLGT (Synthetically generated cMet-binding peptide sequence) [SEQ ID NO: 043] | 4.2 fold over background | 1.37 fold over background
GSELFCFYHHQGYEGCDVLAP (Synthetically generated cMet-binding peptide sequence) [SEQ ID NO: 385] | 4.8 fold over background | 1.27 fold over background
